Test results: patent US20230355761A1 (CRISPR THERAPEUTICS, published 2023)

Molecular target: T1, CD70 on human cancer cell lines (A498, ACHN, SK-OV-3, Hs 766T, NCI-H1975, Calu-1, DU 145, SNU-1, MM.1S, HuT78) (human, UniProt P32970 1-193)
T1 sequence (looked up): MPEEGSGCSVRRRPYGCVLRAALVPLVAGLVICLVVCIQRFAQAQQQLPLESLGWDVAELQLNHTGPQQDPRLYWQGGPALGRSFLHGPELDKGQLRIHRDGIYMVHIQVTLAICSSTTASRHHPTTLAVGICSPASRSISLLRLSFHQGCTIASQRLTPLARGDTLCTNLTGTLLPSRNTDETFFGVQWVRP
Assay: cell-based or functional assay

B1: anti-CD70 CAR (CD70B scFv with 41BB), as expressed on the surface of gene-edited human T cells (CTX130; TRAC-/β2M-/CD70-/anti-CD70 CAR+ T cells) (other)
chain: QVQLVQSGAEVKKPGASVKVSCKASGYTFTNYGMNWVRQAPGQGLKWMGWINTYTGEPTYADAFKGRVTMTRDTSISTAYMELSRLRSDDTAVYYCARDYGDYGMDYWGQGTTVTVSSGGGGSGGGGSGGGGSGDIVMTQSPDSLAVSLGERATINCRASKSVSTSGYSFMHWYQQKPGQPPKLLIYLASNLESGVPDRFSGSGSGTDFTLTISSLQAEDVAVYYCQHSREVPWTFGQGTKVEIKSAAAFVPVFLPAKPTTTPAPRPPTPAPTIASQPLSLRPEACRPAAGGAVHTRGLDFACDIYIWAPLAGTCGVLLLSLVITLYCNHRNRKRGRKKLLYIFKQPFMRPVQTTQEEDGCSCRFPEEEEGGCELRVKFSRSADAPAYQQGQNQLYNELNLGRREEYDVLDKRRGRDPEMGGKPRRKNPQEGLYNELQKDKMAEAYSEIGMKGERRRGKGHDGLYQGLSTATKDTYDALHMQALPPR
  cell kill of A498, ACHN, SK-OV-3 and Hs-766T cells by 3X KO CD70 CAR+ T cells, flow cytometry, 24 h, 1:1 effector:target cell ratio: > 50%
  cell kill of A498, ACHN, SK-OV-3 and Hs-766T cells by 3X KO CD70 CAR+ T cells, flow cytometry, 24 h, 4:1 effector:target cell ratio: > 60%
  cell kill of NCI-H1975, Calu-1 and DU 145 cells (medium to low CD70 expression) by 3X KO CD70 CAR+ T cells, flow cytometry, 24 h, 4:1 effector:target cell ratio: > 30%
  cell kill of SKOV-3, Hs-766T and NCI-H1975 cells by 3X KO CD70 CAR+ T cells, flow cytometry, 96 h, 1:1 effector:target cell ratio: > 80%
  cell lysis of CD70+ A498 cells by TRAC-/β2M-/CD70-/anti-CD70 CAR+ T cells, Cell titer-Glo, 24 h, T cell:A498 ratios 1:1 and 0.5:1: > 90%
  cell lysis of CD70+ A498 cells by TRAC-/β2M-/anti-CD70 CAR+ T cells (2X KO), Cell titer-Glo, 24 h, T cell:A498 ratios 1:1 and 0.5:1: < 90%
